# Data published in article doi:10.1101/2023.09.18.558202 (bioRxiv, 2023).
# B1: F420-dependent methylene-tetrahydromethanopterin reductase (Mer) from Methanocaldococcus jannaschii (enzyme, UniProt Q58929 1-331, looked up)
# chain: MKFGIEFVPNEPIQKLCYYVKLAEDNGFEYCWITDHYNNRNVYMALTAIAMNTNKIKLGPGVTNPYVRSPAITASAIATLDELSGGRAVLGIGPGDKATFDALGIEWVKPVTTLKESIEVIRKLLAGERVSYEGKVVKIAGAALAVKPIQKAVPVYMGAQGPKMLETAGMIADGVLINASNPKDFEAAIPLIKKGAEAAGRSMDEIDVAAYACMSVDKNADKAKQAAVPVVAFIAAGSPPVVLERHGIDMEKVEAIRNALKSGNFPEAFKNVDDTMLEAFSIYGTPEDVVEKCKKLAEMGVTQIVAGSPIGPNKETAIKLIGKKVIPALKE
# Target: the molecule itself
# Test: SEC
protein,measurement,value
B1,stoichiometry N,2
